The series is described as follows: self-splicing fitness, log relative to wild type (ln ratio); higher = more splicing; Tetrahymena group I intron in knt gene, E. coli kanamycin selection, DiMSum; sequences stand for … in CUCUCU…GGAGGGAAAAGUUAUCAGGCAUGCACCUGGUAGCUAGUCUUUAAACCAAUAGAUUGCAUCGGUUUAAAAGGCAAGACCGUCAAAUUGCGGGAAAGGGGUCAACAGCCGUUCAGUACCAAGUCUCAGGGGAAACUUUGAGAUGGCCUUGCAAAGGGUAUGGUAAUAAGCUGACGGACAUGGUCCUAACCACGCAGCCAAGUCCUAAGUCAACAGAUCUUCUGUUGAUAUGGAUGCAGUUCACAGACUAAAUGUCGGUCGGGGAAGAUGUAUUCUUCUCAUAAGAUAUAGUCGGACCUCUCCUUAAUGGGAGCUAGCGGAUGAAGUGAUGCAACACUGGAGCCGCUGGGAACUAAUUUGUAUGCGAAAGUAUAUUGAUUAGUUUUGGAGUACUCGUGGUCG
The method, boiled down: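 DiMSum derived fitness as the error-weighted combination of fold changes across replicates, kanamycin versus no kanamycin, normalised to wild type. E. coli BL21(DE3) held the library, which randomised all eight P1ex-region intron nucleotides within the knt kanamycin-resistance gene on pET-22b(+). Six replicate transformations grew overnight at 37°C or 30°C on LB agar with or without 25 μg/mL kanamycin, also containing 100 μg/mL carbenicillin, 50 μM IPTG and 0.2% rhamnose, and pooled colonies were amplicon-sequenced on an Illumina HiSeq 2500.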

± gives the uncertainty stated by the source.

For CCCAAGCAAUAUUACGACCA, the “self-splicing fitness (ln)” value runs as follows: (30 °C) -4.66 ± 0.32; (37 °C) -2.27 ± 0.17.
In the same order, the values of GAUCAGCAAUAUUACGUUGC are -2.84 ± 0.27 and -3.1 ± 0.31.
With CGCAAGCAAUAUUACGGCAC, the “self-splicing fitness (ln)” value is, setting by setting: (30 °C) -2.32 ± 0.21; (37 °C) -1.29 ± 0.3.
AGAGAGCAAUAUUACGAUUG: the “self-splicing fitness (ln)” value runs as follows: (30 °C) -3.12 ± 0.25; (37 °C) -2.88 ± 0.35.
With GUAAAGCAAUAUUACGAGCG, the “self-splicing fitness (ln)” value runs as follows: (30 °C) -0.0732 ± 0.09; (37 °C) 0.212 ± 0.12.
The like results for GCCUAGCAAUAUUACGUGUC were, in that order, -1.13 ± 0.056 and -0.843 ± 0.058.
With CGCUAGCAAUAUUACGCAAA, for the setting “37 °C”, the “self-splicing fitness (ln)” value was -3.01 ± 0.47.
For the sequence AUCAAGCAAUAUUACGCAUG, the “self-splicing fitness (ln)” value (30 °C) was -3.06 ± 0.12 and the “self-splicing fitness (ln)” value (37 °C) is -1.56 ± 0.098.
Take ACAGAGCAAUAUUACGGAUG: the “self-splicing fitness (ln)” value runs as follows: (30 °C) -4.02 ± 0.31; (37 °C) -3.37 ± 0.37.
In the same order, the values of CGUGAGCAAUAUUACGAAUC are -2.66 ± 0.2 and -2.34 ± 0.28.
In the same order, the values of GCGCAGCAAUAUUACGCCGU are -1.57 ± 0.13 and -2.07 ± 0.27.
In the same order, the values of CCCAAGCAAUAUUACGUCCA are -1.96 ± 0.14 and -2.45 ± 0.23.
UAGAAGCAAUAUUACGGUGU: the “self-splicing fitness (ln)” value reads like this: (30 °C) -3.23 ± 0.14; (37 °C) -3.06 ± 0.15.
Take AUCGAGCAAUAUUACGCCGG: the “self-splicing fitness (ln)” value reads like this: (30 °C) -1.43 ± 0.22; (37 °C) -1.57 ± 0.3.
In the same order, the values of AGGCAGCAAUAUUACGGUCU are -3.15 ± 0.24 and -2.61 ± 0.25.
AUGGAGCAAUAUUACGUACU: the “self-splicing fitness (ln)” value was -0.848 ± 0.16 (30 °C) and -0.491 ± 0.18 (37 °C).
The like results for GCGUAGCAAUAUUACGUGCU were, in that order, -2.05 ± 0.16 and -2.44 ± 0.27.
As for UUGCAGCAAUAUUACGUCUA, the “self-splicing fitness (ln)” value by setting is: (30 °C) -0.361 ± 0.11; (37 °C) -0.0705 ± 0.11.
UAACAGCAAUAUUACGAGGU: the “self-splicing fitness (ln)” value was -4.14 ± 0.23 (30 °C) and -2.58 ± 0.23 (37 °C).
With ACUCAGCAAUAUUACGCUGC, the “self-splicing fitness (ln)” value is, setting by setting: (30 °C) -3.36 ± 0.3; (37 °C) -2.24 ± 0.29.
In the same order, the values of GUCGAGCAAUAUUACGCUUU are -1.81 ± 0.18 and -1.92 ± 0.2.
Take GGCAAGCAAUAUUACGGGGG: the “self-splicing fitness (ln)” value is -2.86 ± 0.16 (30 °C) and -2.54 ± 0.22 (37 °C).
As to GCAGAGCAAUAUUACGCAAA, the “self-splicing fitness (ln)” value (30 °C) is -3.37 ± 0.38.
With GUGAAGCAAUAUUACGCGGA, the “self-splicing fitness (ln)” value is -1.24 ± 0.09 (30 °C) and -1.13 ± 0.14 (37 °C).
In the case of UCGGAGCAAUAUUACGGCUA, under “37 °C”, the “self-splicing fitness (ln)” value is -1.32 ± 0.39.
In the case of CAGUAGCAAUAUUACGCAAU, the “self-splicing fitness (ln)” value (30 °C) was -1.7 ± 0.39.
As to UAAUAGCAAUAUUACGAGAU, the “self-splicing fitness (ln)” value by setting is: (30 °C) -4.03 ± 0.43; (37 °C) -2.38 ± 0.47.
Consider CUCAAGCAAUAUUACGCUCA, for which the “self-splicing fitness (ln)” value by setting is: (30 °C) -3.34 ± 0.26; (37 °C) -2.49 ± 0.24.
On to GCGCAGCAAUAUUACGAAGG, for which the “self-splicing fitness (ln)” value was -1.79 ± 0.087 (30 °C) and -0.733 ± 0.12 (37 °C).
Take GCUCAGCAAUAUUACGUCGG: the “self-splicing fitness (ln)” value is, setting by setting: (30 °C) -2.71 ± 0.14; (37 °C) -0.555 ± 0.15.
In the same order, the values of GCCCAGCAAUAUUACGGAGA are -0.433 ± 0.062 and -0.0159 ± 0.072.
As to AUUAAGCAAUAUUACGGAAU, the “self-splicing fitness (ln)” value reads like this: (30 °C) -1.3 ± 0.14; (37 °C) -1.3 ± 0.18.
Turning to AAAAAGCAAUAUUACGUGCU, the “self-splicing fitness (ln)” value was -1.68 ± 0.076 (30 °C) and -0.538 ± 0.079 (37 °C).
Consider AAGGAGCAAUAUUACGCUGA, for which the “self-splicing fitness (ln)” value reads like this: (30 °C) -3.54 ± 0.23; (37 °C) -1.44 ± 0.15.
The like results for UCUCAGCAAUAUUACGGAGU were, in that order, -2.81 ± 0.22 and -2.49 ± 0.19.
As for AUGGAGCAAUAUUACGCCCU, the “self-splicing fitness (ln)” value reads like this: (30 °C) -2.84 ± 0.3; (37 °C) -2.13 ± 0.37.
Turning to AACUAGCAAUAUUACGUACG, the “self-splicing fitness (ln)” value reads like this: (30 °C) -1.15 ± 0.079; (37 °C) -0.237 ± 0.096.
On to AUUUAGCAAUAUUACGGAUC, for which the “self-splicing fitness (ln)” value by setting is: (30 °C) -2.84 ± 0.22; (37 °C) -0.766 ± 0.19.
For the sequence AUAUAGCAAUAUUACGCAGA, the “self-splicing fitness (ln)” value is -2.82 ± 0.31 (30 °C) and -1.42 ± 0.21 (37 °C).
The like results for GGCAAGCAAUAUUACGGUGG were, in that order, -2.24 ± 0.11 and -1.81 ± 0.14.
As to UCACAGCAAUAUUACGGCCU, the “self-splicing fitness (ln)” value (30 °C) is -3.61 ± 0.25 and the “self-splicing fitness (ln)” value (37 °C) was -1.99 ± 0.15.
Regarding GUUCAGCAAUAUUACGACCG, the “self-splicing fitness (ln)” value is, setting by setting: (30 °C) -3.83 ± 0.18; (37 °C) -1.93 ± 0.23.
Take CCACAGCAAUAUUACGUCCU: the “self-splicing fitness (ln)” value is -3.44 ± 0.27 (30 °C) and -1.76 ± 0.19 (37 °C).
As to AUUCAGCAAUAUUACGAAUC, the “self-splicing fitness (ln)” value (30 °C) was -2.12 ± 0.2 and the “self-splicing fitness (ln)” value (37 °C) was -0.519 ± 0.32.
In the case of AAUAAGCAAUAUUACGUGAU, the “self-splicing fitness (ln)” value is -2.97 ± 0.14 (30 °C) and -1.23 ± 0.12 (37 °C).
UGCGAGCAAUAUUACGAACA: the “self-splicing fitness (ln)” value runs as follows: (30 °C) -1.47 ± 0.14; (37 °C) 0.122 ± 0.18.
Take GGCUAGCAAUAUUACGCUCG: the “self-splicing fitness (ln)” value is -2.15 ± 0.24 (30 °C) and -0.647 ± 0.19 (37 °C).
As to AAUUAGCAAUAUUACGACCA, the “self-splicing fitness (ln)” value (30 °C) is -0.406 ± 0.1 and the “self-splicing fitness (ln)” value (37 °C) amounted to 0.48 ± 0.12.
Consider UGAAAGCAAUAUUACGCCCA, for which the “self-splicing fitness (ln)” value reads like this: (30 °C) -0.309 ± 0.11; (37 °C) 0.296 ± 0.16.
Turning to ACCUAGCAAUAUUACGCGCC, the “self-splicing fitness (ln)” value is, setting by setting: (30 °C) -0.396 ± 0.09; (37 °C) -0.477 ± 0.12.
The like results for CUACAGCAAUAUUACGACUA were, in that order, -2.2 ± 0.23 and -2.38 ± 0.35.
Turning to AUAGAGCAAUAUUACGUGUG, the “self-splicing fitness (ln)” value (30 °C) is -1.61 ± 0.1 and the “self-splicing fitness (ln)” value (37 °C) was -2.39 ± 0.2.
On to UAGCAGCAAUAUUACGAUCA, for which the “self-splicing fitness (ln)” value was found to be 0.112 ± 0.088 (30 °C) and 0.169 ± 0.099 (37 °C).
Take GCGCAGCAAUAUUACGAAAG: the “self-splicing fitness (ln)” value was -2.66 ± 0.16 (30 °C) and -1.68 ± 0.14 (37 °C).
As for CUAUAGCAAUAUUACGGACC, under “37 °C”, the “self-splicing fitness (ln)” value is -1.23 ± 0.34.
For the sequence AGCAAGCAAUAUUACGCUUC, the “self-splicing fitness (ln)” value (37 °C) is -3.29 ± 0.42.
Turning to UGAAAGCAAUAUUACGAAAG, the “self-splicing fitness (ln)” value runs as follows: (30 °C) -2.61 ± 0.15; (37 °C) -0.866 ± 0.16.
For the sequence UCACAGCAAUAUUACGACUC, the “self-splicing fitness (ln)” value (30 °C) is -3.43 ± 0.12 and the “self-splicing fitness (ln)” value (37 °C) was -1.44 ± 0.13.
Turning to UGUUAGCAAUAUUACGGACA, the “self-splicing fitness (ln)” value (30 °C) was -1.59 ± 0.23 and the “self-splicing fitness (ln)” value (37 °C) is -0.73 ± 0.2.
Take ACGAAGCAAUAUUACGGGAU: the “self-splicing fitness (ln)” value runs as follows: (30 °C) -3.47 ± 0.13; (37 °C) -1.8 ± 0.14.
Consider CGUAAGCAAUAUUACGAUUU, for which the “self-splicing fitness (ln)” value was -2.66 ± 0.14 (30 °C) and -1.58 ± 0.12 (37 °C).
As for CACCAGCAAUAUUACGGGGA, the “self-splicing fitness (ln)” value reads like this: (30 °C) -1.7 ± 0.062; (37 °C) -0.764 ± 0.067.

These data come from the supplement of paper PMC7877785.
